B1: unnamed (parent)
chain 1: VHQRIASWQNLGAVYCSTVVPSDDVTVVYQNGLPVISVRLPSRRERCQFTLKPISDSVGVFLRQLQEEDRGIDRVAIYSPDGVRVAASTGIDLLLLDDFKLVINDLTYHVRPPKRDLLSHENAATLNDVKTLVQQLYTTLCIEQHQLNKERELIERLEDLKEQLAPLEKVRIEISRKAEKRTTLVLWGGLAYMATQFGILARLTWWEYSWDIMEPVTYFITYGSAMAMYAYFVMTRQEYVYPEARDRQYLLFFHKGAKKSRFDLEKYNQLKDAIAQAEMDLKRLRDPLQVHLPLRQIGEKD
chain 2: DIDTAAKFIGAGAATVGVAGSGAGIGTVFGSLIIGYARNPSLKQQLFSYAILGFALSEAMGLFCLMVAFLILFAM

Variants of: B1
Assay: MYTH (membrane yeast two-hybrid) quantitative β-Gal activity assay
Details: with partner chain of the complex shown; yeast strain NMY51; n = 3; 6 colonies for each independent experiment; read off a plot

Variant	response [units]
chain 1 Q196A I199P L200P W205A	26

— article PMC7078472
